Assay results as given in US20210309755A1 (FRED HUTCHINSON CANCER CENTER, published 2021).

Columns and labels:
[1] = target: T1, MSLN-Avi ectodomain (human ectodomain of MSLN) (human, UniProt Q13421 296-598, limits assumed); experiment: written beside the structure of the 1A12 Fab on MSLN; no assay named on the sheet (the value is the rounded SPR fit of FIG. 7A)
T1 construct: extracellular domain; Expressed in 293-F cells as the fusion sFlag-His-Scn-tev-MSLN-Avi and cleaved with TEV protease; It was the analyte in SPR, and I take it to be the MSLN in the Fab:MSLN crystal complex as well; not shown: Avi tag
Protocol: (§1) Surface plasmon resonance (SPR) experiments were performed at 25° C. on a BIACORE™ T100 instrument (GE Healthcare) with a Series S CM4 chip using a running buffer of 10 mM HEPES, pH 7.4, 150 mM NaCl, 3 mM EDTA, 0.05% surfactant P20 with 0.1 mg/mL bovine serum albumin. Goat anti-human Fc antibody (Jackson Labs: 109005098) was amine coupled to the CM4 chip (˜2800 RUs) and each antibody was then captured on a single flow cell of immobilized goat anti-human Fc. The purified MSLN-Avi (discussed above) was run as a concentration series at 50 uL/min over the captured antibodies and the goat anti-human Fc reference surface. CM4 chip was regenerated with 10 mM glycine, pH1.5 for 30 sec at 50 uL/min. Data was double referenced and analyzed in BiaEval 2.0.4.

[2] = target: T1, MSLN-Avi ectodomain (human ectodomain …); experiment: SPR, Biacore T100, 25 C; antibody captured on goat anti-human Fc (57.1 +/- 0.8 RUs), MSLN-Avi as analyte 2.0-1000 nM in duplicate, 1:1 fit
Protocol: as §1

T1 sequence (Q13421 other isoform, or with tags, fused parts or gaps limits assumed): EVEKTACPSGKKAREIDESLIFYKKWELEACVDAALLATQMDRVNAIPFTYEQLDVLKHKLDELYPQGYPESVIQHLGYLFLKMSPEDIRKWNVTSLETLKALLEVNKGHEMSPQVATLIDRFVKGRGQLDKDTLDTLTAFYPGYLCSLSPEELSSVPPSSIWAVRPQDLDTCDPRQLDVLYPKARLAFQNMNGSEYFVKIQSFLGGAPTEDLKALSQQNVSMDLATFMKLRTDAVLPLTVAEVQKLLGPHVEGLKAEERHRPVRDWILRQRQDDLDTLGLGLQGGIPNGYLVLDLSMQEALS

B1: 1A12 anti-MSLN antibody (antibody, human IgG1, V domains shown)
VH: EVQLLESGGGLVQPGGSLRLSCAASGLTFRSYAMTWVRQAPGKGLEWVSGISVSGGITYYADSVKGRFTISRDNSKNTLYLQMNSLRAEDTAVYYCAKRGAAVGSFDYWGQGTLVTVSS
VL: DIQMTQSPSSLSASVGDRVTITCRSSQGIGSWLAWYQQKPEKAPQSLIYAASSLQSGVPSRFSGSGSGTDFTLTISNLQPEDFATYYCQQYNSYPLTFGGGTKVEIK
notes: also called 1A12b; anti-MSLN 1A12 antibody
B1 showed a Kd [1] of 64 nM, a Kd [2] of 64.4 nM and a koff [2] of 0.00458 s⁻¹. It also gave a kon [2] of 71100 M⁻¹ s⁻¹.
